Test results reported in patent US12281147.

How the values were obtained:
[1] = biological target: human interleukin 21 receptor (IL-21R) (human) (UniProt Q9HBE5); assay: AlphaSeq yeast mating assay, pH 7 media
[2] = biological target: human interleukin 21 receptor (IL-21R) (human) (UniProt Q9HBE5); assay: AlphaSeq yeast mating assay, unbuffered media
[3] = biological target: human interleukin 21 receptor (IL-21R) (human) (UniProt Q9HBE5); assay: AlphaSeq yeast mating assay, pH 6 media
[4] = biological target: human interleukin 21 receptor (IL-21R) (human) (UniProt Q9HBE5); assay: AlphaSeq yeast mating assay, pH 5 media
[5] = biological target: mouse IL-21R on T cells of mouse splenocytes (mouse) (UniProt Q9JHX3); assay: cell-based or functional assay
[6] = biological target: mouse IL-21R, His-tagged (BLI antigen) (mouse) (UniProt Q9JHX3); assay: BLI
[7] = biological target: recombinant human IL-21R His tag (Acro Biosystems) (human) (UniProt Q9HBE5); assay: BLI
[8] = biological target: human IL-21R on T cells of primary human PBMCs (human) (UniProt Q9HBE5); assay: cell-based or functional assay

| Substance | Kd [1] [nM] | Kd [2] [nM] | Kd [3] [nM] | Kd [4] [nM] | Mouse T cell EC50 (pM), pSTAT3 phosflow [5] [pM] | Kd [6] [nM] | Kd [7] [nM] | Human T cell EC50 (pM), pSTAT3 phosflow [8] [pM] |
| --- | --- | --- | --- | --- | --- | --- | --- | --- |
| IL-21_K106E (from UniProt Q9HBE4 32-152) (ligand) | 550 | 120 | – | – | – | – | – | – |
| IL-21_human_D33P Fc fusion protein (from UniProt Q9HBE4 30-162) | – | – | – | – | 1800 | 19.8 | – | – |
| IL-21_R115P (from UniProt Q9HBE4 32-152) (ligand) | 57 | 55 | 15 | – | – | – | – | – |
| IL-21_R94T (from UniProt Q9HBE4 32-152) (ligand) | 80 | – | 27 | 210 | – | – | – | – |
| IL-21_R115Q (from UniProt Q9HBE4 32-152) (ligand) | 56 | – | 11 | – | – | – | – | – |
| IL-21_human_P108L Fc fusion protein (from UniProt Q9HBE4 30-162) | – | – | – | – | 71000 | 11.8 | 3.21 | – |
| IL-21_R34T (from UniProt Q9HBE4 32-152) (ligand) | 140 | 350 | 26 | – | – | – | – | – |
| IL-21_H118I (from UniProt Q9HBE4 32-152) (ligand) | – | 150 | – | 360 | – | – | – | – |
| IL-21_human_Y52Q Fc fusion protein (from UniProt Q9HBE4 30-162) | – | – | – | – | 9200 | 19.4 | 14.4 | 8.7 |
| IL-21_R34L (from UniProt Q9HBE4 32-152) (ligand) | 77 | 330 | – | 100 | – | – | – | – |
| IL-21_human_S74H Fc fusion protein (from UniProt Q9HBE4 30-162) | – | – | – | – | 1900 | – | 12.3 | 3.6 |
| IL-21_human_E72S Fc fusion protein (from UniProt Q9HBE4 30-162) | – | – | – | – | 47000 | 7.75 | – | 31 |

Other lines, results leading:

| Kd [1] [nM] | Kd [2] [nM] | Kd [3] [nM] | Kd [4] [nM] | Mouse T cell EC50 (pM), pSTAT3 phosflow [5] [pM] | Kd [6] [nM] | Kd [7] [nM] | Human T cell EC50 (pM), pSTAT3 phosflow [8] [pM] | Substance |
| --- | --- | --- | --- | --- | --- | --- | --- | --- |
| 57 | 450 | 48 | 140 | – | – | – | – | IL-21_R114F (from UniProt Q9HBE4 32-152) (ligand) |
| 59 | 560 | – | 41 | – | – | – | – | IL-21_H35P (from UniProt Q9HBE4 32-152) (ligand) |
| 35 | – | 27 | 140 | – | – | – | – | IL-21_R94S (from UniProt Q9HBE4 32-152) (ligand) |
| 50 | 260 | 35 | 140 | – | – | – | – | IL-21_R115I (from UniProt Q9HBE4 32-152) (ligand) |
| – | – | – | – | 8500 | 28.7 | 31.5 | 5.6 | IL-21_human_R34S Fc fusion protein (from UniProt Q9HBE4 30-162) |
| – | 390 | – | 150 | – | – | – | – | IL-21_R34M (from UniProt Q9HBE4 32-152) (ligand) |
| 60 | – | 15 | 40 | – | – | – | – | IL-21_S77M (from UniProt Q9HBE4 32-152) (ligand) |
| 140 | 250 | 11 | 20 | – | – | – | – | IL-21_N51E (from UniProt Q9HBE4 32-152) (ligand) |
| – | – | – | – | 6900 | 19.9 | 22.8 | – | IL-21_human_W73L Fc fusion protein (from UniProt Q9HBE4 30-162) |
